Assay results taken from patent publication US12404345B2, “Humanized antibodies against iRHOM2” (SCIRHOM GMBH, priority 2021, dated 2025).

How the values were obtained:
Settings in all cases: antibody at 3 μg/ml
[1] = molecular target: T1, endogenous iRhom2 on THP-1 cells (Homo sapiens, UniProt Q6PJF5); assay: FACS binding to THP-1 cells endogenously expressing iRhom2 and iRhom1
T1 construct: THP-1 cells, a human monocytic cell line endogenously expressing both iRhom2 and iRhom1; host or cells: THP-1
T1 sequence (Q6PJF5 1-856): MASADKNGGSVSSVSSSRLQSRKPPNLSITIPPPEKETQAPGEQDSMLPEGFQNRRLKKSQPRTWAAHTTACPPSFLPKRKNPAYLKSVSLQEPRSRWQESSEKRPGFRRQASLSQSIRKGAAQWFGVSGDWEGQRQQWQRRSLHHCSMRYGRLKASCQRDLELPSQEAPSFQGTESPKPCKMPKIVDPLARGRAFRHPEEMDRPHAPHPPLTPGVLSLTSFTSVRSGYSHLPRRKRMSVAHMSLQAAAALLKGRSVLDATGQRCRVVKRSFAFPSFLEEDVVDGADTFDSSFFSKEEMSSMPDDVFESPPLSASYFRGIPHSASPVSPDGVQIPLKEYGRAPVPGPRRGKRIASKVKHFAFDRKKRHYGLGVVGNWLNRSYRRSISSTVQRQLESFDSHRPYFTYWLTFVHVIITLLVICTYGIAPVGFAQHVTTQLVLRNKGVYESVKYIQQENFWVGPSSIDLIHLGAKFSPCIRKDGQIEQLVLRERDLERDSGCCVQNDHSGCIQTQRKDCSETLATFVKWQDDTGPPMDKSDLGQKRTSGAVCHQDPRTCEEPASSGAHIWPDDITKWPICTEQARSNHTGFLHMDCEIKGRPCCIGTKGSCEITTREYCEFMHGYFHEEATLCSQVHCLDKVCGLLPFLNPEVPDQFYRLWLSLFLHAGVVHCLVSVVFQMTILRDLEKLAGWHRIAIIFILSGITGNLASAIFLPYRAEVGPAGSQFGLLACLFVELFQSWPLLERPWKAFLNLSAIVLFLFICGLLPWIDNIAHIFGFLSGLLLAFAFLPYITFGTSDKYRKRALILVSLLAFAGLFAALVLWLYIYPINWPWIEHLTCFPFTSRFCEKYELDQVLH
Description: (§1) In this study, binding specificity analyses of the humanized antibody 42-B-02 as a representative example of the antibodies of the invention in cell lines endogenously expressing iRhom2 were performed. The studies were conducted on RPMI-8226 cells, a human B lymphocytic cell line endogenously expressing iRhom2 but being endogenously negative for iRhom1, on THP-1 cells, a human monocytic cell line endogenously expressing both iRhom2 and iRhom1 and on RH-30 cells, a human […] cell line endogenously negative for iRhom2 but endogenously expressing iRhom1.
(§2) In brief, human RPMI-8226 cells (Deutsche Sammlung von Mikroorganismen und Zellkulturen, Germany), THP-1 cells (American Type Culture Collection, USA) and RH-30 cells (Deutsche Sammlung von Mikroorganismen und Zellkulturen, Germany) were harvested with 10 mM EDTA in PBS, washed and resuspended in FACS buffer (PBS, 3% FBS, 0.05% sodium azide), and seeded in Nunc U-bottom 96-well plates (Thermo Fisher Scientific, USA) at approximately 2×10^5 cells per well. In order to pellet cells and remove supernatants, the plates were centrifuged at 1,500 rpm and 4° C. for 3 minutes. […] Finally, cells were resuspended in 150 μl per well of FACS buffer and analyzed using a BD Accuri™ C6 Plus flow cytometer (Becton Dickinson, Germany).

[2] = molecular target: T2, endogenous iRhom2 on RPMI-8226 cells (Homo sapiens, UniProt Q6PJF5); assay: FACS binding to RPMI-8226 cells endogenously expressing iRhom2
T2 construct: RPMI-8226 cells, a human B lymphocytic cell line endogenously expressing iRhom2; host or cells: RPMI-8226
T2 sequence (Q6PJF5 1-856): T1 sequence (Q6PJF5 1-856)
Description: as §1, §2

[3] = system: RH-30 cells; assay: FACS binding to RH-30 cells endogenously negative for iRhom2; parameters: species or system human
Description: as §1, §2

- binding to THP-1 cells (endogenously expressing iRhom2 and iRhom1) [1]: strong binding
- binding to RPMI-8226 cells (endogenously expressing iRhom2, negative for iRhom1) [2]: strong binding
B1: 42-B-02: humanized antibody binding human iRhom2; HCVD SEQ ID NO 33, LCVD SEQ ID NO 37 (antibody, V domains shown)
VH: QVTLRESGPALVKPTQTLTLTCTFSGFSLSTFGRGVGWIRQPPGKALEWLAHIWWDDEKYYNSALKSRLTISKDTSKNQVVLTITNMDPVDTATYYCARIQNYGSNYWYFDVWGQGTLVTVSS
VL: AIQLTQSPSSLSASVGDRVTITCRASSRISYMFWYQQKPGKAPKVLIYDTSNLASGVPSRFSGSGSGTDYTLTISSLQPEDFATYYCQQWNSYPLTFGQGTKLEIK
modifications: antibody sequences
- binding to RH-30 cells (endogenously negative for iRhom2, expressing iRhom1) [3]: no binding
